The record followed here is patent US20260209350A1 (Alector, published 2026).

One test concerns the target T1, mouse TREM2 on cells (mouse, UniProt Q99NH8 19-227).
T1 construct: whole, on cells; Used for the recombinant protein on BWZ/BW cells (with mouse DAP12) and for the native protein on mouse macrophages and dendritic cells; the cell type stands under assay; also called mTREM2; mTrem2
T1 sequence (looked up): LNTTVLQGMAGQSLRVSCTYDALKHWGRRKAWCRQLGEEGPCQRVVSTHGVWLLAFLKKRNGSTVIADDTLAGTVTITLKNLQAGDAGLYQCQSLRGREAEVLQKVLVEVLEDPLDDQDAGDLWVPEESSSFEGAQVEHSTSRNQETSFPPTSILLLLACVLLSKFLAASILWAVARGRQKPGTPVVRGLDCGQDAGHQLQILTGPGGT
The test is described as follows: FACS, mTrem2 cells.

Test [1] deals with T2, human TREM2 Fc fusion protein (human, UniProt Q9NZC2 19-174).
T2 construct: also called hTREM2-Fc; not shown: Fc part not specified
T2 sequence: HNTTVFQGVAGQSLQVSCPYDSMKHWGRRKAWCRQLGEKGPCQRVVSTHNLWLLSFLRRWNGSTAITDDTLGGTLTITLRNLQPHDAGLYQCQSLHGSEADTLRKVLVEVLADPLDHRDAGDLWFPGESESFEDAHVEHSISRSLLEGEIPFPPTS
The test is described as follows: ForteBio or MSD-SET, avid.

Test [2] concerns the target T3, mouse TREM2 Fc fusion protein (mouse, UniProt Q99NH8 19-171).
T3 construct: also called mTREM2-Fc; not shown: Fc part not specified
T3 sequence (looked up): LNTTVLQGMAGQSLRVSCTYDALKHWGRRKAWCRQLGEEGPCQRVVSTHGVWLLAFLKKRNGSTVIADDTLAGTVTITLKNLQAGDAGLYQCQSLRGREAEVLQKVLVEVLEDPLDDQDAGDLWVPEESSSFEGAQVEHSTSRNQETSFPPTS
The test is described as follows: ForteBio or MSD-SET, avid. In general terms: BLI is a label-free optical method that tracks binding on a fibre tip over time.

B1: Ab73 (antibody, human IgG1, V domains shown)
VH: EVQLVQSGAEVKKPGESLKISCKGSGYSFTSYWIGWVRQMPGKGLEWMGIIYPGDSDTTYSPSFQGQVTISADKSISTAYLQWSSLKASDTAMYYCARAKMLDDGYAFDIWGQGTMVTVSS
VL: EIVMTQSPATLSVSPGERATLSCRASQSVSSNLAWYQQKPGQAPRLLIYGASTRATGIPARFSGSGSGTEFTLTISSLQSEDFAVYYCQQDDNYPYTFGGGTKVEIK
notes: human IgG1
Turning to B1, the MFI with mouse TREM2 on cells is 1120 MFI. Besides, the Kd (as a rule, the concentration at which binding is half-saturated) in test [1] turned out to be 4.1 nM. Further, the binding result in test [2] was “no binding”.

B2: Ab77 (antibody, human IgG1, V domains shown)
VH: QVQLVESGGGVVQPGRSLRLSCAASGFTFSSYGMHWVRQAPGKGLEWVAVISYDGSNKYYADSVKGRFTISRDNSKNTLYLQMNSLRAEDTAVYYCARGPPHEMDYWGQGTLVTVSS
VL: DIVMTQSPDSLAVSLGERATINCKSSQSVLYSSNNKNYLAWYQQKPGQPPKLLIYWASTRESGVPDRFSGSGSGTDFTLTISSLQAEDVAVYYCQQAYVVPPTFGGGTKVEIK
notes: human IgG1
As for B2, the MFI in the test with mouse TREM2 on cells is 1650 MFI. Further, the binding result in test [2] is “no binding”.

B3: Ab24 (antibody, human IgG1, V domains shown)
VH: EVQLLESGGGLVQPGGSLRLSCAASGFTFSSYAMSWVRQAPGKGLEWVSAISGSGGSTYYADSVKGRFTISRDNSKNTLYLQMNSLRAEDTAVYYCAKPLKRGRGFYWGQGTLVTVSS
VL: DIQMTQSPSSLSASVGDRVTITCRASQSISSYLNWYQQKPGKAPKLLIYAASSLQSGVPSRFSGSGSGTDFTLTISSLQPEDFATYYCQQAFSPPPWTFGGGTKVEIK
notes: human IgG1
With B3, in the test with mouse TREM2 on cells, the MFI is 2760 MFI. For the same molecule, the figures for the Kd in test [1] and in test [2] were 0.479 nM and 9.32 nM, respectively.

B4: Ab85 (antibody, human IgG1, V domains shown)
VH: QVQLVESGGGVVQPGRSLRLSCAASGFTFSSYGMHWVRQAPGKGLEWVAVIWYDGSNKYYADSVKGRFTISRDNSKNTLYLQMNSLRAEDTAVYYCAKDLGGYYGGAAYGMDVWGQGTTVTVSS
VL: DIQLTQSPSSVSASVGDRVTITCRASQDISSWLAWYQQKPGKAPKLLIYAASSLQSGVPSRFSGSGSGTDFTLTISSLQPEDFATYYCQQEVDYPPLTFGGGTKVEIK
notes: human IgG1
As for B4, the MFI in the test with mouse TREM2 on cells was 1120 MFI. In addition, the Kd in test [1] came out at 5.72 nM; in test [2] it was 2.19 nM.

B5: Ab76 (antibody, human IgG1, V domains shown)
VH: EVQLVESGGGLVKPGGSLRLSCAASGFTFSSYSMNWVRQAPGKGLEWVSSISSSSSYIYYADSVKGRFTISRDNAKNSLYLQMNSLRAEDTAVYYCARGGGRRGDNNWFDPWGQGTLVTVSS
VL: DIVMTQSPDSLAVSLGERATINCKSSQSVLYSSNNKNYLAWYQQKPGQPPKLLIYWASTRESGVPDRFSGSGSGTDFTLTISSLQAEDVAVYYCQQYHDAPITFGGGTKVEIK
notes: human IgG1
For the molecule B5, in test [1], the Kd stood at 4.84 nM.

B6: Ab27 (antibody, human IgG1, V domains shown)
VH: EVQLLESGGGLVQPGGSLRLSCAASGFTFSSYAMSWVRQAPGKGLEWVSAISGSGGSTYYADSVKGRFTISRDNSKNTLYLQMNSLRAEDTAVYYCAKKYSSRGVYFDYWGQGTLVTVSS
VL: EIVLTQSPATLSLSPGERATLSCRASQSVSSYLAWYQQKPGQAPRLLIYDASNRATGIPARFSGSGSGTDFTLTISSLEPEDFAVYYCQQYNNFPPTFGGGTKVEIK
notes: human IgG1
B6 returned an MFI with mouse TREM2 on cells of 2160 MFI. Moreover, the Kd in test [1] amounted to 1.33 nM; in test [2] it was 6.39 nM.

B7: Ab81 (antibody, human IgG1, V domains shown)
VH: QVQLVQSGAEVKKPGSSVKVSCKASGGTFSSYAISWVRQAPGQGLEWMGGIIPIFGTANYAQKFQGRVTITADESTSTAYMELSSLRSEDTAVYYCARDSGNYDYWSGALRYWGQGTLVTVSS
VL: EIVLTQSPATLSLSPGERATLSCRASQSVSSYLAWYQQKPGQAPRLLIYDASNRATGIPARFSGSGSGTDFTLTISSLEPEDFAVYYCQQSSNWPWTFGGGTKVEIK
notes: human IgG1
As for B7, the MFI with mouse TREM2 on cells worked out at 400 MFI. This molecule gave a Kd in test [1] of 10.1 nM. The binding result in test [2] is recorded as “no binding”.

B8: Ab60 (antibody, human IgG1, V domains shown)
VH: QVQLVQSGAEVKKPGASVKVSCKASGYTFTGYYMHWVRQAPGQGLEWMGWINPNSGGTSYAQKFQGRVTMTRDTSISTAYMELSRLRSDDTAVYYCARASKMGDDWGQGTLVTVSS
VL: EIVLTQSPATLSLSPGERATLSCRASQSVSSYLAWYQQKPGQAPRLLIYDASKRATGIPARFSGSGSGTDFTLTISSLEPEDFAVYYCQQRASMPITFGGGTKVEIK
notes: human IgG1
Turning to B8, in test [1], the Kd was found to be 5.59 nM.

B9: Ab80 (antibody, human IgG1, V domains shown)
VH: QVQLVQSGAEVKKPGSSVKVSCKASGGTFSSYAISWVRQAPGQGLEWMGGIIPIFGTANYAQKFQGRVTITADESTSTAYMELSSLRSEDTAVYYCARGGGTFWSGSWALYWGQGTLVTVSS
VL: EIVLTQSPATLSLSPGERATLSCRASQSVSSYLAWYQQKPGQAPRLLIYDASNRATGIPARFSGSGSGTDFTLTISSLEPEDFAVYYCQQYVNWPFTFGGGTKVEIK
notes: human IgG1
As to B9, in the test with mouse TREM2 on cells, the MFI is 593 MFI. In addition, the Kd worked out at 5.72 nM in test [1] and 8.85 nM in test [2].

B10: Ab61 (antibody, human IgG1, V domains shown)
VH: QVQLVQSGAEVKKPGASVKVSCKASGYTFTSYGIHWVRQAPGQGLEWMGWISAYNGNTNYAQKLQGRVTMTTDTSTSTAYMELRSLRSDDTAVYYCARGGVPRVSYFQHWGQGTLVTVSS
VL: EIVLTQSPATLSLSPGERATLSCRASQSVSSYLAWYQQKPGQAPRLLIYDSSNRATGIPARFSGSGSGTDFTLTISSLEPEDFAVYYCQQAFNRPPTFGGGTKVEIK
notes: human IgG1
In the case of B10, in the test with mouse TREM2 on cells, the MFI was determined as 10500 MFI. Moreover, in test [1], the Kd came out at 4.61 nM.

B11: Ab28 (antibody, human IgG1, V domains shown)
VH: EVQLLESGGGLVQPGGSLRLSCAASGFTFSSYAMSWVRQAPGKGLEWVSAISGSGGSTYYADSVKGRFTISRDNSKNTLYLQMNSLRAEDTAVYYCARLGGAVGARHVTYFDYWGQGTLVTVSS
VL: EIVLTQSPATLSLSPGERATLSCRASQSVSSYLAWYQQKPGQAPRLLIYDASKRATGIPARFSGSGSGTDFTLTISSLEPEDFAVYYCQQRYLRPITFGGGTKVEIK
notes: human IgG1
In turn, B11 yielded an MFI with mouse TREM2 on cells of 5250 MFI. The results for the Kd in test [1] and in test [2] were 0.915 nM and 7.45 nM, respectively.

B12: Ab75 (antibody, human IgG1, V domains shown)
VH: not shown
VL: EIVLTQSPATLSLSPGERATLSCRASQSVSSYLAWYQQKPGQAPRLLIYDASNRATGIPARFSGSGSGTDFTLTISSLEPEDFAVYYCQQVSNYPFTFGGGTKVEIK
notes: human IgG1
As to B12, the MFI with mouse TREM2 on cells was 276 MFI. Moreover, in test [1], the Kd came to 5.88 nM. For the same molecule, in test [2], the binding result is recorded as “no binding”.

B13: Ab41 (antibody, human IgG1, V domains shown)
VH: EVQLLESGGGLVQPGGSLRLSCAASGFTFSTYAMSWVRQAPGKGLEWVSAISGSGGSTYYADSVKGRFTISRDNSKNTLYLQMNSLRAEDTAVYYCARAMARKSVAFDIWGQGTMVTVSS
VL: EIVLTQSPATLSLSPGERATLSCRASQSVSSYLAWYQQKPGQAPRLLIYDASNRATGIPARFSGSGSGTDFTLTISSLEPEDFTVYYCQQRYALPITFGGGTKVEIK
notes: human IgG1
Molecule B13 came in with an MFI with mouse TREM2 on cells of 373 MFI. Besides, the Kd in test [1] amounted to 2.14 nM; in test [2], 8.64 nM.

B14: Ab74 (antibody, human IgG1, V domains shown)
VH: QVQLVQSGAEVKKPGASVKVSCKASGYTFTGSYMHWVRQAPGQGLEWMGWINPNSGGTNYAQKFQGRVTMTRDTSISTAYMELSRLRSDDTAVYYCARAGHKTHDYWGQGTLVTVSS
VL: EIVLTQSPATLSLSPGERATLSCRASQSVSSYLAWYQQKPGQAPRLLIYDASNRATGIPARFSGSGSGTDFTLTISSLEPEDFAVYYCQQRSTFPITFGGGTKVEIK
notes: human IgG1
As to B14, the MFI with mouse TREM2 on cells was 1360 MFI. Besides, the Kd amounted to 9.43 nM in test [1] and 4.91 nM in test [2].

B15: Ab79 (antibody, human IgG1, V domains shown)
VH: EVQLVESGGGLVQPGGSLRLSCAASGFTFSSYSMNWVRQAPGKGLEWVSYISGSSSTIYYADSVKGRFTISRDNAKNSLYLQMNSLRAEDTAVYYCARGGRRHYGGMDVWGQGTTVTVSS
VL: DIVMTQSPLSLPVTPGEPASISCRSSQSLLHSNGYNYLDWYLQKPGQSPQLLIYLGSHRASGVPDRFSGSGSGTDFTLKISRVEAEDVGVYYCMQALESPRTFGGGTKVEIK
notes: human IgG1
As to B15, the MFI with mouse TREM2 on cells was 738 MFI. The same molecule showed a Kd in test [1] of 10.7 nM. In addition, the binding result in test [2] is “no binding”.

B16: Ab37 (antibody, human IgG1, V domains shown)
VH: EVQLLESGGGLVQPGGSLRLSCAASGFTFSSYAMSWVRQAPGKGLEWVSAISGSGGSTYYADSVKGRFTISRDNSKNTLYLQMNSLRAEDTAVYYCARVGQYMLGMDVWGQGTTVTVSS
VL: EIVLTQSPATLSLSPGERATLSCRASQSVSSYLAWYQQKPGQAPRLLIYDASNRATGIPARFSGSGSGTDFTLTISSLEPEDFAVYYCQQRAFLFTFGGGTKVEIK
notes: human IgG1
As to B16, the MFI with mouse TREM2 on cells was found to be 1430 MFI. For the same molecule, in test [1], binding was put at a Kd of 1.58 nM. Moreover, in test [2], the binding result is reported as “no binding”.

B17: Ab25 (antibody, human IgG1, V domains shown)
VH: not shown
VL: EIVLTQSPGTLSLSPGERATLSCRASQSVSSSYLAWYQQKPGQAPRLLIYGASSRATGIPDRFSGSGSGTDFTLTISRLEPEDFAVYYCQQDDRSPTFGGGTKVEIK
notes: human IgG1
In the test with mouse TREM2 on cells, B17 yielded an MFI of 2500 MFI. For the same molecule, in test [2], binding was characterised by a dissociation constant (Kd) of 5.98 nM.

B18: Ab29 (antibody, human IgG1, V domains shown)
VH: QVQLVESGGGVVQPGRSLRLSCAASGFTFSSYGMHWVRQAPGKGLEWVAVISYDGSNKYYADSVKGRFTISRDNSKNTLYLQMNSLRAEDTAVYYCARGQYYGGSGWFDPWGQGTLVTVSS
VL: EIVLTQSPGTLSLSPGERATLSCRASQSVSSSYLAWYQQKPGQAPRLLIYGASSRATGIPDRFSGSGSGTDFTLTISRLEPEDFAVYYCQQPGAVPTFGGGTKVEIK
notes: human IgG1
Consider B18, for which the MFI in the test with mouse TREM2 on cells was determined as 4520 MFI. Moreover, the Kd is 2.36 nM in test [1] and 3.27 nM in test [2].

B19: Ab30 (antibody, human IgG1, V domains shown)
VH: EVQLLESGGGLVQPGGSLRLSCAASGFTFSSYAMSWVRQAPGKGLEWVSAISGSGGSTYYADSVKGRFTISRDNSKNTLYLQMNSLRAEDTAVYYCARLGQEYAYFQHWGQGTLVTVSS
VL: DIQMTQSPSSLSASVGDRVTITCRASQSISSYLNWYQQKPGKAPKLLIYGASSLQSGVPSRFSGSGSGTDFTLTISSLQPEDFATYYCQQVYITPITFGGGTKVEIK
notes: human IgG1
Regarding B19, the affinity in test [1], expressed as Kd, was 1.32 nM. Moreover, the binding result in test [2] is given as “no binding”.

B20: Ab83 (antibody, human IgG1, V domains shown)
VH: QVQLQQWGAGLLKPSETLSLTCAVYGGSFSGYYWSWIRQPPGKGLEWIGEIDHSGSTKYNPSLKSRVTISVDTSKNQFSLKLSSVTAADTAVYYCARVGVVVGRPGYSAFDIWGQGTMVTVSS
VL: DIQMTQSPSSVSASVGDRVTITCRASQGISSWLAWYQQKPGKAPKLLIYAASSLQSGVPSRFSGSGSGTDFTLTISSLQPEDFATYYCQQRNSLPLTFGGGTKVEIK
notes: human IgG1
With B20, in test [1], the Kd amounted to 8.21 nM.

B21: Ab82 (antibody, human IgG1, V domains shown)
VH: QVQLQESGPGLVKPSQTLSLTCTVSGGSISSGGYYWSWIRQHPGKGLEWIGYIYYSGSTVYNPSLKSRVTISVDTSKNQFSLKLSSVTAADTAVYYCARVSSSWYKAWGQGTMVTVSS
VL: DIQMTQSPSSVSASVGDRVTITCRASQGISSWLAWYQQKPGKAPKLLIYAASSLQSGVPSRFSGSGSGTDFTLTISSLQPEDFATYYCQQASTFPITFGGGTKVEIK
notes: human IgG1
As for B21, the MFI with mouse TREM2 on cells stood at 712 MFI. Further, the Kd in test [1] was 11 nM; in test [2] it was 5.82 nM.
